Earlier results in publication PMC6063947.

Biological target: Asp61 (UniProt position 61, VMGLVDAIPMI)
Assay: NMR

In the case of “ATP synthase subunit c (F0 sector, proteolipid) (Escherichia coli)”, the pKa is given as 7.1.
